The text below walks through data of patent publication US12281161B2, “Polypeptides and uses thereof” (TRUSTEES OF BOSTON UNIVERSITY, priority 2021, dated 2025).

Like-named read-outs stand apart in the source and are kept apart here. Where a SMILES comes first, the peptide text is derived from it. Primed or numbered codes have the meaning given here. Where no end group is shown, it is not given here. [ ]: non-standard residue; d: D form. The star is where a group is joined. DBCO‑MMAE = DBCO-PEG3-glutamic acid-valine-citrulline-p-aminobenzylcarbamate-MMAE (DBCO-PEG3-EVC-PABC-MMAE); Lys(N3)′ = its azide, alkyne or alkene has reacted where a group follows in round brackets; Dolaproine = CO[C@@H]([C@@H]1CCCN1)[C@@H](C)C(=O)O; Dil = CC[C@H](C)[C@H](NC)[C@@H](CC(=O)O)OC; X1 = C[C@@H](N*)[C@@H](O)c1ccccc1; NMeV = CN[C@H](C(=O)O)C(C)C Some results are limits rather than exact numbers.

One data set relates to NCI-H226. Briefly: preliminary toxicity study of MMAE in NSCLC line. In kind it is cell-based, human. From the text: (§1) There are various linker chemistries for ADCs in use clinically and being investigated, as described in Chapter One. A common motif in ADCs is the valine-citrulline dipeptide which is recognized by human Cathepsin B, a lysosomal enzyme. The full motif typically used is valine-citrulline-p-aminobenzylcarbamate-monomethyl auristin E (vc-MMAE). […] The vc-MMAE structure is used in several FDA approved ADCs (brentuximab vedotin, polatuzumab vedotin, enfortumab vedotin) which target both hematologic and solid tumors.

The test system of data set [1] is NCI-H520. Description: preliminary toxicity study of MMAE in NSCLC line. In kind it is cell-based, human.
From the text: as §1

The subject of data set [2] is NCI-H520. Description: in vitro cytotoxicity (MTT). Format: cell-based, human. The protocol: (§2) We utilized two different incubation methods.
(§3) We then incubated the human cell lines with ADC, and equivalent concentrations of MMAE and native Ab for both 48 hours and 72 hours, the results of which can be seen in FIG. 13A-13E. We expected the results to correlate with the GPR87 expression we observed by flow cytometry. For the normal cell lines, this was the case. As detailed in FIG. 14, the line that was most sensitive to the ADC were the NHLFs, followed by the BEAS-2Bs, and the line with the lowest GPR87 expression, the HUVECs, had the highest IC50 after 72 hours. However, both the NSCLC cell lines had relatively high IC50s given the GPR87 expression status of these lines.
(§4) In comparison, NCI-H358 and NCI-H520 see approximately a 4-fold or 2-fold decrease in IC50, respectively, between the two time points. On the other hand, the NCI-H520 line has almost a 10-fold increase in MMAE IC50 at 72 hours compared to 48 hours. The results are likely because the cell lines are different sizes and morphologies and therefore are at different confluencies when plated at the same number of cells per well and are therefore likely to be in different parts of their log growth phase during treatment. For example, the NSCLC lines are typically at very low confluency at a plating density of 5,000 cells per well and may not reach log phase growth until later in the assay. As MMAE affects actively dividing cells, this will affect the results of the assay. While 72 hours was not the optimized end time point for all five cell lines, in order to have a standardized cell plating density, and therefore same ADC:cell ratio, going past 72 hours for some of the cell lines would lead to confluency or death in untreated control cells, which would also confound results. Thus, we incubated the two NSCLC lines for longer periods of time to allow the control cells to become more confluent by the assay endpoint, and to see how this would affect the ADC IC50.
(§5) Standard cytotoxicity assays, like the MTT assays ran here, measure or rather, approximate the cell number at an end point and compare to control untreated cells. Effectively what is measured is a comparison between growth rates. When comparing the efficacy of a drug, particularly a mitotic inhibitor, among different cell lines, division rate differences due to biology, media additives, or seeding density can have a dramatic effect on the IC50, an issue brought up by Hafner et al. They reported with both modeling and in vitro assays how using the IC50 as a metric can actually mask the true mechanism of a drug, for example the microtubule inhibitor paclitaxel. […] GR values indicate whether a drug inhibits growth (0<GR<1), is cytostatic (GR=0) or cytotoxic (GR<0). To calculate this parameter, one needs cell count data for at least two different time points and compares experimental growth rates to the growth rate of control cells. […] Consequently, we reviewed the data at our two time points to perform a similar analysis. We plated at the same seeding density for both the 48 and 72 hour time points. As MTT is an endpoint assay rather than a kinetic assay like MTS, we can use MTT signal as a proxy for cell count. […] Therefore, we excluded this cell line from our analysis. We are technically assessing the effect the ADC or equivalent MMAE has on the growth rate of cells at 60 hours, as we are measuring at t=x±delta t, with x being 60 and delta t being 12 hours. Ideally, we would assess an earlier time point or even multiple time points. […] (FIGS. 19A-19D). Conversely, both NCI-H520 and NCI-H358 are cytotoxic (GR<0) at higher concentrations of ADC at this time point. […] While the GR50 data is still not in agreement with GPR87 expression, it does indicate that this type of analysis at other, earlier, time points is useful in assessing the dynamics of ADC and MMAE cytotoxicity in these cell lines.

The subject of another data set is BEAS-2B. Briefly: in vitro cytotoxicity (MTT). In kind it is cell-based, human. The protocol:
as §2, §3, §5

The next data set concerns NHLF. Description: in vitro cytotoxicity (MTT). Format: cell-based, human. The protocol: as §2, §3, §5
The next data set concerns SKBR-3. Description: in vitro toxicity of αHER2-P3 based ADC. The following applies: SKBR-3, 72 h, up to 10 μg/ml ADC (equivalent to 100 ng/ml MMAE).
The next data set concerns A549. Briefly: in vitro toxicity of αHER2-P3 based ADC. The following applies: A549, 72 h, up to 10 μg/ml ADC (equivalent to 100 ng/ml MMAE).
For another data set, the system named is NIH-3T3. Briefly: in vitro cytotoxicity, negative control line. Conditions: 72 hours.
In a further data set the test system is NCI-H358. Briefly: in vitro cytotoxicity (MTT). Format: cell-based, human. The protocol:
as §2, §3, §4, §5

For a further data set, the target named is GPR87 antigen (Homo sapiens, UniProt Q9BY21). Description: custom ELISA binding analysis of αGPR87 antibody, Ab-CCK and ADC. The protocol:
With the CCE-MMAE peptide successfully synthesized and previous optimization of the antibody loading process with the AFC, it was facile to translate the method to formulating the ADC. Using a similar custom ELISA as before, but with a secondary antibody recognizing mouse antibody, it was contemplated whether the loading of CCE-MMAE, the 50° C. incubation, or even the expression of the peptide tails affected the binding affinity of the antibody. (FIG. 8C) What was found was initially surprising, which was that by adding the peptide tails onto the antibody, the Kd was affected. […] However, if it was taken into consideration the SEC data showing the larger aggregates formed by these antibodies, the results are more consistent. The original analysis was done by using the wt/vol concentration of the antibodies. However, if there are larger aggregates forming such as hexamers of Ab-CCK or hexamers, trimers, and monomers of the ADC, then equivalent wt/vol concentrations will vary by molarity. If it was assumed the Ab-CCK exists as a hexamer and therefore at the same wt/vol concentration as the native Ab is at one sixth the molar concentration, the binding data can be reanalyzed with these adjusted molarities. Similarly, it can be assumed the ADC is forming on average trimers and adjust the molar concentration by one third accordingly. The resulting curves are similar, with the Ab, Ab-CCK, and ADC having Kds of approximately 0.43, 0.46, and 0.41 nM, respectively.
(In general: In an ELISA, binding on a coated surface is turned into a signal by an enzyme label.)

The subject of data set [3] is NCI-H358, NCI-H520, NHLF, BEAS-2B, HUVEC. Briefly: in vitro cytotoxicity, comparison of ADC and MMAE over the five cell lines. Format: cell-based, human. Conditions: 48 and 72 hours. The protocol: as §3
We investigated analyzing other parameters, such as the area under the curve (AUC) for the five cell lines as we noted that the hill slope was variable between different cell lines and between ADC and MMAE treatments. By assessing the AUC, we could interpret the total cytotoxicity of the treatment over all concentrations tested. Rather than the large (>100) fold differences in ADC and MMAE IC50s observed in FIG. 14, FIG. 16 indicates the difference in toxicity between the two are less pronounced, on the order of 1-3-fold difference. However, comparing the toxicity of the ADC across the cell lines, the relationships, or lack thereof, between toxicity and GPR87 expression remain largely the same.

GPR87 antigen, sequence (Q9BY21 whole entry): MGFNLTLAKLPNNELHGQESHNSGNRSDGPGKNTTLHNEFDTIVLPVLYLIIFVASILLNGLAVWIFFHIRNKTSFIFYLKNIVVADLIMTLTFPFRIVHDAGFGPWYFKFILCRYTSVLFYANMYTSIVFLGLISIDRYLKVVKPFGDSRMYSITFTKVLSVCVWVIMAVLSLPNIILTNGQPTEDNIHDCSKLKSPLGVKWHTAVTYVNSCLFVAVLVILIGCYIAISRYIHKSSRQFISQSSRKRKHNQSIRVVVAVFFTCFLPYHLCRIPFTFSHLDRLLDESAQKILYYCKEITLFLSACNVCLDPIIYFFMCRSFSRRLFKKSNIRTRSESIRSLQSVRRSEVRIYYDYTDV
Description for A549: (§6) The toxicity of the new ADC was investigated in vitro in the HER2-positive cell lines: SKBR-3 and A549. We treated the cells with up to 10 μg/ml of ADC (equivalent to 100 ng/ml of MMAE) along with native antibodies and free drug at equivalent concentrations.
Description for NIH-3T3: We incubated NIH-3T3s with up to 10 μg/ml of ADC (67 nM, equivalent to 96 ng/ml of MMAE) along with the native antibody and MMAE alone at equivalent concentrations.
Description for SKBR-3: as §6

Take `CC[C@H](C)[C@@H]([C@@H](CC(=O)N1CCC[C@H]1[C@H](OC)[C@@H](C)C(=O)N[C@H](C)[C@@H](O)c1ccccc1)OC)N(C)C(=O)[C@@H](NC(=O)[C@@H](NC)C(C)C)C(C)C` [MMAE, Monomethyl auristatin E, reference compound] (H-[NMeV]V[Dil][Dolaproine]-X1): the 50% inhibitory concentration (IC50) (in general, the concentration that inhibits the measured activity by half) was 0.294 nM in the data set on NCI-H226 and 0.042 nM in the data set with NCI-H520 [1]. Also, in the data set on NCI-H520 [2] (NCI-H520), the “increase in IC50 at 72 hours compared to 48 hours” value was about 10 fold. Moreover, the GR50 result is recorded as “cannot be calculated” in the data set on BEAS-2B and “do not reach that value” with NHLF. In addition, the cell viability in the data set with SKBR-3 and in the data set on A549 was 20% each time. In the data set with NIH-3T3 (NIH-3T3, up to 10 μg/ml ADC or equivalent concentrations), the cytotoxicity entry is reported as “highly toxic”.
As to “CCE-MMAE: CCE peptide (SEQ ID NO: 3) conjugated at azido lysine with DBCO-MMAE (MKLEEIVSELEEIVSELEEIV[Lys(N3)′](DBCO‑MMAE)ELEEIVYEVGER)”, the toxicity result in the data set with NCI-H358 (NCI-H358, 72 hours, concentrations equivalent to ADC) is recorded as “Toxicity was only observed at the highest concentration”.

B1: ADC (conjugate)
heavy: EVQLQQSGPDLVKPGASMKISCKASGYSFTDYTMHWVKQSHGKNFEWIGLINPYNDGTTYNQKFKGKATLTVDKSSSTAYMELLSLTSEDSAVYYCASLDYWGQGTSVTVSSAKTTPPSVYPLAPGSAAQTNSMVTLGCLVKGYFPEPVTVTWNSGSLSSGVHTFPAVLQSDLYTLSSSVTVPSSTWPSETVTCNVAHPASSTKVDKKIVPRDCGCKPCICTVPEVSSVFIFPPKPKDVLTITLTPKVTCVVVDISKDDPEVQFSWFVDDVEVHTAQTQPREEQFNSTFRSVSELPIMHQDWLNGKEFKCRVNSAAFPAPIEKTISKTKGRPKAPQVYTIPPPKEQMAKDKVSLTCMITDFFPEDITVEWQWNGQPAENYKNTQPIMDTDGSYFVYSKLNVQKSNWEAGNTFTCSVLHEGLHNHHTEKSLSHSPGKGGGGGMKLKKIKSVLKKIKSVLKKIKSVLKKIKSVVGER
light: DVVMTQTPLSLPVSLGDQASISCRSSQSLVHSSGNTYLHWYLQKPGQSPKLLIYKVSNRFSGVPDRFSGSGSGTDFTLKISRVEAEDLGVYFCSQSTHVPYTFGGGTKLEIKRADAAPTVSIFPPSSEQLTSGGASVVCFLNNFYPKDINVKWKIDGSERQNGVLNSWTDQDSKDSTYSMSSTLTLTKDEYERHNSYTCEATHKTSTSPIVKSFNRNEC
peptide: MKLEEIVSELEEIVSELEEIVKELEEIVYEVGER
For B1, the Kd (usually a measure of binding affinity in units of concentration) with GPR87 antigen (Ab-CCK assumed hexamer, ADC assumed trimer (from SEC), read-out: Kd, reanalyzed with adjusted molarities) was about 0.41 nM; with GPR87 antigen (ELISA, analysed by wt/vol concentration, read-out: Kd) it was about 1.3 nM. Moreover, the “decrease in IC50 between 48 and 72 hours” value in the data set on NCI-H358 (NCI-H358) is about 4 fold; in the data set with NCI-H520 [2] (NCI-H520), about 2 fold. For the same molecule, the “toxicity, 24 hours treatment + 48 hours fresh media vs 72 hours treatment” value with NCI-H358 (NCI-H358) was “no significant difference between the two treatment groups”. In addition, the “normalized growth rate inhibition (GR)” value is recorded as under 0 with NCI-H358 (NCI-H358, higher concentrations of ADC, 60 hours) and under 0 in the data set on NCI-H520 [2] (NCI-H520, higher concentrations of ADC, 60 hours). Further, the “IC50, start of time course” value in the data set with NCI-H358 (NCI-H358, incubation 48, 72 and 120 hours, first value of 'from ... to') is on record as 9.11 ng/ml of MMAE equivalent ADC; in the data set on NCI-H520 [2] (NCI-H520, incubation 48, 72 and 168 hours, first value of 'from ... to'), 12.87 ng/ml of MMAE equivalent ADC. The “IC50, end of time course” value with NCI-H358 (NCI-H358, longer incubation (up to 120 hours), last value of 'from ... to') is 8.69 ng/ml of MMAE equivalent ADC; in the data set with NCI-H520 [2] (NCI-H520, longer incubation (up to 168 hours), last value of 'from ... to'), 5.24 ng/ml of MMAE equivalent ADC. Further, the IC50 in the data set on NCI-H520 [2] (NCI-H520, ADC prepared at 50° C.) amounted to 3 nM; in the data set on NCI-H520 [2] (NCI-H520, ADC prepared at RT), 4.9 nM; with BEAS-2B (ADC prepared at 50° C.), 6.8 nM; in the data set on BEAS-2B (ADC prepared at RT) it was 5.3 nM; with NHLF (ADC prepared at 50° C.), 0.8 nM; with NHLF (ADC prepared at RT), 0.8 nM. Also, in the data set on BEAS-2B (at 60 hours), the GR-based effect result is reported as “cytotoxic”. In addition, in the data set on NHLF, the GR50 result is recorded as “do not reach that value”. Also, in the data set on NHLF, the “difference between 48 and 72 hour IC50s” value is “almost identical”. Further, the “fold differences in ADC and MMAE IC50s” value in data set [3] (FIG. 14) is recorded as over 100 fold. Moreover, the “fold difference in toxicity (AUC) between ADC and MMAE” value in data set [3] (FIG. 16) is 1-3 fold. Also, in the data set on NIH-3T3 (NIH-3T3, 10 μg/ml ADC), the viability (commonly a per cent measure of how many cells are alive, often set against a control) was about 76%.
